# ± gives the uncertainty stated by the source.
# B1: POU domain, class 6, transcription factor 2, residues 609 to 663; numbered along this chain, P78424 (parent)
# chain: KRRTSFTPQALEILNAHFEKNTHPSGQEMTEIAEKLNYDREVVRVWFCNKRQALK
# Variants of: B1
# Assay: abundance fitness (aPCA) (normalised: wild type 0, dead -1); higher = more abundant; growth selection in yeast, the domain comes from the species named
# Settings: Homo sapiens
row,Variant,abundance fitness
1,KRRTSFTPQALKILNAHFEKNTHPSGQEMTEIAEKLNYDREVVRVWFCNKRQALK,-0.695 ± 0.4
2,KRRTSFTPQALEILNAHFMKNTHPSGQEMTEIAEKLNYDREVVRVWFCNKRQALK,-0.013 ± 0.11
3,KRRTSFTPQALEILNAHFPKNTHPSGQEMTEIAEKLNYDREVVRVWFCNKRQALK,-1.05 ± 0.24
4,KRRTSFTPQALEIQNAHFEKNTHPSGQEMTEIAEKLNYDREVVRVWFCNKRQALK,-0.819 ± 0.11
5,KRRTSFTPQALEITNAHFEKNTHPSGQEMTEIAEKLNYDREVVRVWFCNKRQALK,-0.936 ± 0.19
6,KRRTSFTPQALEIVNAHFEKNTHPSGQEMTEIAEKLNYDREVVRVWFCNKRQALK,-0.729 ± 0.089
7,KRRTSFTPQALEIENAHFEKNTHPSGQEMTEIAEKLNYDREVVRVWFCNKRQALK,-1.07 ± 0.19
8,KRRTSFTPQALEILNAHFEKNTHPSGQEMMEIAEKLNYDREVVRVWFCNKRQALK,0.102 ± 0.28
9,KRRTSFTPQALEILNAHFEKNTHPSGQEMYEIAEKLNYDREVVRVWFCNKRQALK,-0.25 ± 0.18
10,KRRTSFTPQALEILNAHFEKNTHPSGQEMHEIAEKLNYDREVVRVWFCNKRQALK,-0.061 ± 0.25
11,KRRTSFTPQALEILNAHFEKNTHPSGQEMSEIAEKLNYDREVVRVWFCNKRQALK,-0.232 ± 0.17
12,KRRTSFTPQALEILNAHFEKNTHPSGQEMQEIAEKLNYDREVVRVWFCNKRQALK,-0.119 ± 0.4
13,KRRTSFYPQALEILNAHFEKNTHPSGQEMTEIAEKLNYDREVVRVWFCNKRQALK,-0.637 ± 0.17
14,KRRTSFTPQALEILNAHFEKNTHPSGLEMTEIAEKLNYDREVVRVWFCNKRQALK,0.064 ± 0.085
15,KRRTSFTPQALEILNAHFEKNTHPSGQEMTEIAEKLNQDREVVRVWFCNKRQALK,0.024 ± 0.073
16,KRRTSFTPQALEILNAHFEKNTHPSGQEMTEIAEKLNFDREVVRVWFCNKRQALK,-0.145 ± 0.098
17,KRRTSFTPQALEILNAHFEINTHPSGQEMTEIAEKLNYDREVVRVWFCNKRQALK,-0.245 ± 0.14
18,KRRTSFTPQALEILNAAFEKNTHPSGQEMTEIAEKLNYDREVVRVWFCNKRQALK,-0.03 ± 0.067
19,KRRTSFTPQALEILNAVFEKNTHPSGQEMTEIAEKLNYDREVVRVWFCNKRQALK,-0.031 ± 0.054
20,KRRTSFTPQALEILNAHFEKNTHPSGQEMTEIAEKLNYDREVVRVDFCNKRQALK,-0.447 ± 0.26
21,KRRTSFTPQALEILNAHFEKNTHPSGQEMTEIAEKLNYDREVVRVHFCNKRQALK,-0.53 ± 0.42
22,KRRTSFTPQALEILNAHFEKNTHPSGQEMTEIAEKLNYDREVVRVQFCNKRQALK,-0.827 ± 0.43
23,KRRTSFTPQALEILNAHFEKNTHPSGQEMTEIAEKLNYQREVVRVWFCNKRQALK,-0.152 ± 0.078
24,KRRTSFTPQALEILNAHFEKNTHASGQEMTEIAEKLNYDREVVRVWFCNKRQALK,-0.497 ± 0.068

row,Variant,abundance fitness
1,KRRTSFTPQALEILNAHFEKNTHVSGQEMTEIAEKLNYDREVVRVWFCNKRQALK,-0.386 ± 0.058
2,KRRTSFTPQALEILNAHFEKNTHCSGQEMTEIAEKLNYDREVVRVWFCNKRQALK,-0.462 ± 0.1
3,KRRTSFTPQALEILNAHFEKNTHRSGQEMTEIAEKLNYDREVVRVWFCNKRQALK,-0.909 ± 0.068
4,KRRTSFTPQALEILNAHKEKNTHPSGQEMTEIAEKLNYDREVVRVWFCNKRQALK,-0.927 ± 0.19
5,KRRTSFTPQALEILNAHFEKNTHPSGQEMTEIAEKLNYDREVVRVWFCNRRQALK,0.022 ± 0.071
6,KRRTSFTPQALEILNAHFEKNTHPSGQEMTEIAEKLNYDREVVRVWFCNYRQALK,-1.01 ± 0.3
7,KRRTSFTPQALEILNAHFEKNTHPSGQEMTEIAEKLNYDREVVRVWFCNERQALK,-0.156 ± 0.14
8,KRRTSFTPQALEILNAHFEKATHPSGQEMTEIAEKLNYDREVVRVWFCNKRQALK,-0.198 ± 0.08
9,KRRTSFTPQALEILNAHFEKDTHPSGQEMTEIAEKLNYDREVVRVWFCNKRQALK,-0.153 ± 0.092
10,KRRTSFTPQALEILNAHFEKYTHPSGQEMTEIAEKLNYDREVVRVWFCNKRQALK,-0.36 ± 0.13
11,KRRTSFTPQALEILNAHFEKWTHPSGQEMTEIAEKLNYDREVVRVWFCNKRQALK,-0.67 ± 0.09
12,KRRTSFTPQALEILNAHFEKQTHPSGQEMTEIAEKLNYDREVVRVWFCNKRQALK,-0.044 ± 0.15
13,KRRTSFTPQALEILNAHFEKCTHPSGQEMTEIAEKLNYDREVVRVWFCNKRQALK,-0.008 ± 0.1
14,KRRTSFTPQALEILLAHFEKNTHPSGQEMTEIAEKLNYDREVVRVWFCNKRQALK,-0.15 ± 0.093
15,KRRTSFTPQALEILNAHFEKNTHPSGQEMTEAAEKLNYDREVVRVWFCNKRQALK,-0.679 ± 0.45
16,KRRTSFTPQALEILNAHFEKNTHPSGQEMTEGAEKLNYDREVVRVWFCNKRQALK,-0.705 ± 0.21
17,KRRTSFTLQALEILNAHFEKNTHPSGQEMTEIAEKLNYDREVVRVWFCNKRQALK,-0.057 ± 0.11
18,KRRTSFTPQALEILNCHFEKNTHPSGQEMTEIAEKLNYDREVVRVWFCNKRQALK,-0.164 ± 0.087
19,KRRTSFTPQALEILNDHFEKNTHPSGQEMTEIAEKLNYDREVVRVWFCNKRQALK,0.113 ± 0.094
20,KRRTSFTPQALEILNPHFEKNTHPSGQEMTEIAEKLNYDREVVRVWFCNKRQALK,-0.865 ± 0.21
21,KRRTSFTPQALEILNIHFEKNTHPSGQEMTEIAEKLNYDREVVRVWFCNKRQALK,-0.183 ± 0.13
22,KRRTSFTPQALEILNAHFEKNNHPSGQEMTEIAEKLNYDREVVRVWFCNKRQALK,0.049 ± 0.12
23,KRRTSFTPQALEILNAHFEKNKHPSGQEMTEIAEKLNYDREVVRVWFCNKRQALK,-0.089 ± 0.11
24,KRRTSFTPQALEILNAHFEKNTHPSGQEMTEIAEKLNYDREVVLVWFCNKRQALK,-0.21 ± 0.067

row,Variant,abundance fitness
1,KRRTSFTPQALEILNAHFEKNTHPSGQEMTEIAEKLNYDREVVRVWTCNKRQALK,-0.763 ± 0.1
2,KRRTSFTPQALEILNAHFEKNTHPSGQEMTEIAVKLNYDREVVRVWFCNKRQALK,-0.194 ± 0.15
3,KRRTSFTPQALEILNAHFEKNTHPSGQEMTEIAQKLNYDREVVRVWFCNKRQALK,-0.194 ± 0.18
4,KRRTSFTPQALEILNAHFEKNTHPSGQEMTEIAMKLNYDREVVRVWFCNKRQALK,-0.285 ± 0.29
5,KRRTSFTPQALEILNAHFEKNTHPSGQEMTEIAEKLNYDREVVRVWFENKRQALK,0.259 ± 0.22
6,KRRTSFTPQALEILNAHFEKNTHPSGQEMTEIAEKLNYDREVVRVWFDNKRQALK,-0.144 ± 0.37
7,KRRTSFTPQALEILNAHFEKNTHPSGQEMTEIVEKLNYDREVVRVWFCNKRQALK,-0.259 ± 0.12
8,KRRTSFTPQALEILNAHFEKNTHPSGQEMTEIAEKLNYDREVVRFWFCNKRQALK,-0.243 ± 0.12
9,KRRTSFTPQALEILNAHFEKNTHPSGQEMTEIAEKLNYDREVVRAWFCNKRQALK,-0.029 ± 0.2
10,KRRTSFTPQALEILNAHFEKNTHPSGQEMTEIAEKLNYDREVVRQWFCNKRQALK,-0.296 ± 0.18
11,KRRTSFTPQALEILNAHFEKNTHPSGQEMTEIAEKLNYDREVVRRWFCNKRQALK,0.018 ± 0.098
12,KRRTSFTPQALEILNAHFEKNTHPSGQEMTYIAEKLNYDREVVRVWFCNKRQALK,-0.499 ± 0.26
13,KRRTSFTPQALEILNAHFEKNTHPSGQEMTVIAEKLNYDREVVRVWFCNKRQALK,-0.174 ± 0.12
14,KRRTSFTPQALEILNAHFEKNTHPSGQEMTLIAEKLNYDREVVRVWFCNKRQALK,-0.288 ± 0.17
15,KRRTSFTPQALEILNAHFEKNTHPSGQFMTEIAEKLNYDREVVRVWFCNKRQALK,-0.17 ± 0.22
16,KRRTSFTPQALEILNAHFEKNTHPSGQSMTEIAEKLNYDREVVRVWFCNKRQALK,-0.321 ± 0.088
17,KRRTSFTPQALEILNAHFEKNTHPSGQWMTEIAEKLNYDREVVRVWFCNKRQALK,-0.692 ± 0.15
18,KRRTSFTPQALEILNAHFEKNTHPSGQEMTEIAEKLRYDREVVRVWFCNKRQALK,-0.063 ± 0.076
19,KRRTSFTPQALEILNAHFEKNTHPSGQEMTEIAEKLPYDREVVRVWFCNKRQALK,-0.229 ± 0.13
20,KRRTSFTPQALEILNAHFEKNTHPSGQEMTEIAEKLNYDREVVRVWFCNKYQALK,-0.097 ± 0.13
21,KRRTSFTPQALEILNAHFEKNTHPSGQEMTEIAEKLNYDREVVRVWFCNKEQALK,-0.337 ± 0.15
22,KRRTSFTPQALEILNAHFEKNTHPSGQEMTEIAEKLNYDREVVRVWFCNKMQALK,-0.377 ± 0.2
23,KRRTSFTPQALEILNAHFEKNTHPSGQEMTEIAEKLNYDREVVRVWFCNKHQALK,-0.385 ± 0.18
24,KRRTSFTPQALEILNAHFEKNTHPSGQEMTEIAEKLNYDREVVRVWFCNKRQALG,-0.226 ± 0.42

row,Variant,abundance fitness
1,KRRTSFTPQALEILNAHFEKNTHPMGQEMTEIAEKLNYDREVVRVWFCNKRQALK,-0.313 ± 0.27
2,KRRTSFTPQALEILNAHFEKNTHPDGQEMTEIAEKLNYDREVVRVWFCNKRQALK,-0.17 ± 0.18
3,KRRTSFTPQALEILNAHFEKNTHPSGQEMTEIAEKLNYDRSVVRVWFCNKRQALK,-0.153 ± 0.064
4,KRRYSFTPQALEILNAHFEKNTHPSGQEMTEIAEKLNYDREVVRVWFCNKRQALK,-0.15 ± 0.18
5,KRRTSFTPQALEILNAHFEKNTHPSGQEMTEIAEKLNYDREVVRVWFCVKRQALK,-0.138 ± 0.1
6,KRRTSFTPQALEILNAHFEKNTHPSGQEMTEIAEKLNYDREVVRVWFCWKRQALK,-0.339 ± 0.11
7,KRRTSFTPQALEILNAHFEKNTHPSGQEMTEIAEKLNYDREVVRVWFCKKRQALK,0.008 ± 0.13
8,KRRTAFTPQALEILNAHFEKNTHPSGQEMTEIAEKLNYDREVVRVWFCNKRQALK,0.019 ± 0.093
9,KRRTVFTPQALEILNAHFEKNTHPSGQEMTEIAEKLNYDREVVRVWFCNKRQALK,0.015 ± 0.074
10,KRRTSFTPQALEILNAHFEKNTHPSGQEMTEIAEFLNYDREVVRVWFCNKRQALK,-0.194 ± 0.14
11,KRRTSFTPQALEILNAHFEKNTHPSGQEMTEIAEHLNYDREVVRVWFCNKRQALK,-0.221 ± 0.44
12,KRRTSFTPQALEILNAHFEKNTHPSGQEMTEIAEPLNYDREVVRVWFCNKRQALK,-0.883 ± 0.26
13,KRRTSFTPQAPEILNAHFEKNTHPSGQEMTEIAEKLNYDREVVRVWFCNKRQALK,-1.01 ± 0.24
14,KRRTSFTPQASEILNAHFEKNTHPSGQEMTEIAEKLNYDREVVRVWFCNKRQALK,-0.283 ± 0.1
15,KHRTSFTPQALEILNAHFEKNTHPSGQEMTEIAEKLNYDREVVRVWFCNKRQALK,-0.144 ± 0.26
16,KCRTSFTPQALEILNAHFEKNTHPSGQEMTEIAEKLNYDREVVRVWFCNKRQALK,-0.345 ± 0.11
17,KMRTSFTPQALEILNAHFEKNTHPSGQEMTEIAEKLNYDREVVRVWFCNKRQALK,0.064 ± 0.11
18,KRRTSFTPQALEILNAHFEKNTHPSGQEMTEIAEKLNYDREVVRVWFCNKRIALK,0.045 ± 0.14
19,ARRTSFTPQALEILNAHFEKNTHPSGQEMTEIAEKLNYDREVVRVWFCNKRQALK,-0.19 ± 0.24
20,VRRTSFTPQALEILNAHFEKNTHPSGQEMTEIAEKLNYDREVVRVWFCNKRQALK,-0.776 ± 0.3
21,KRRTSRTPQALEILNAHFEKNTHPSGQEMTEIAEKLNYDREVVRVWFCNKRQALK,-0.423 ± 0.076
22,KRRTSGTPQALEILNAHFEKNTHPSGQEMTEIAEKLNYDREVVRVWFCNKRQALK,-0.326 ± 0.067
23,KRRTSYTPQALEILNAHFEKNTHPSGQEMTEIAEKLNYDREVVRVWFCNKRQALK,-0.187 ± 0.14
24,KRRTSLTPQALEILNAHFEKNTHPSGQEMTEIAEKLNYDREVVRVWFCNKRQALK,0.135 ± 0.076

# Source: the Human Domainome abundance scans (Beltran et al. 2025)
